From paper PMC4998004, “aPKC Inhibition by Par3 CR3 Flanking Regions Controls Substrate Access and Underpins Apical-Junctional Polarization” (Developmental Cell, 2016)
Residues, ends and D or L forms follow the SMILES beside them. No end group written: not given here.

T1: PKCιKD-2P (primed human PKC-iota kinase domain) (Homo sapiens, UniProt P41743, C595S)
T1 construct: encoding residues 248–596 (GenBank: NM_002740.5); GST (followed by a 3C protease site) (N, cleaved yes); made in house; host or cells: Hi5 insect cells, baculovirus, co-infected with a PDK-1 virus
T1 sequence (P41743 248-596 C595S): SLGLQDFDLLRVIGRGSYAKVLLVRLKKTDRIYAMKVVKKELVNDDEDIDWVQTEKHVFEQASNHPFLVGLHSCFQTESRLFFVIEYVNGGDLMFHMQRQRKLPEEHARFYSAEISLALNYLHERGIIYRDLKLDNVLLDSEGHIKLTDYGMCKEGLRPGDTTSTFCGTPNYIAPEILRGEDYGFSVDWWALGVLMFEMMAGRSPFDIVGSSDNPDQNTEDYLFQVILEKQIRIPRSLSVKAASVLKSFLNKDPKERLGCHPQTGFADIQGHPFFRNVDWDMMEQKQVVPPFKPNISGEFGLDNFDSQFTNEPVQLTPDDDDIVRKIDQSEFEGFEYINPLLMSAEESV

T2: human PKC-iota kinase domain, partially primed low-activity form (PKCιKD-1P) (human, UniProt P41743 248-596, partially primed: one of the two priming sites pT412 and pT564 phosphorylated)
T2 chain: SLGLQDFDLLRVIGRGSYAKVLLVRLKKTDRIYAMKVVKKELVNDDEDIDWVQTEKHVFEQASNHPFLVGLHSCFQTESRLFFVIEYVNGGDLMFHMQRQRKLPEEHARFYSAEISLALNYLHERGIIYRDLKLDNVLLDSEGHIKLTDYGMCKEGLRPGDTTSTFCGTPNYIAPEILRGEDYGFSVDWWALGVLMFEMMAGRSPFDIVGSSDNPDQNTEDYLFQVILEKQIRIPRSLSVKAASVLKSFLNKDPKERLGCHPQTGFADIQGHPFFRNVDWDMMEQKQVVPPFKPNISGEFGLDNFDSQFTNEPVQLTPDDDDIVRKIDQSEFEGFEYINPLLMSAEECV

T3: human PKC-iota kinase domain, primed active form (PKCιKD-2P) (human, UniProt P41743 248-596, phosphothreonine at 412 and 564 (pT412, pT564))
T3 chain: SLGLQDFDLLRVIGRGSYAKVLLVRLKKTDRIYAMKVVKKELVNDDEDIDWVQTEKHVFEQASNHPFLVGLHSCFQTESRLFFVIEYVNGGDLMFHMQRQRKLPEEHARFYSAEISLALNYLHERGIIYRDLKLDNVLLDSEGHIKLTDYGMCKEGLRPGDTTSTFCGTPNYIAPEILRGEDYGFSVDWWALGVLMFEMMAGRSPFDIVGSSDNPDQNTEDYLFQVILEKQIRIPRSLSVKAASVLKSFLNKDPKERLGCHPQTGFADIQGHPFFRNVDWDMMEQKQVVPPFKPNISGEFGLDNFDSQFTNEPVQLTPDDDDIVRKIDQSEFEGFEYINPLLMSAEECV

T4: human PKC-iota kinase domain, primed active form (PKCιKD-2P) (human, UniProt P41743 248-596, phosphothreonine at 412 and 564 (pT412, pT564))
T4 sequence (looked up): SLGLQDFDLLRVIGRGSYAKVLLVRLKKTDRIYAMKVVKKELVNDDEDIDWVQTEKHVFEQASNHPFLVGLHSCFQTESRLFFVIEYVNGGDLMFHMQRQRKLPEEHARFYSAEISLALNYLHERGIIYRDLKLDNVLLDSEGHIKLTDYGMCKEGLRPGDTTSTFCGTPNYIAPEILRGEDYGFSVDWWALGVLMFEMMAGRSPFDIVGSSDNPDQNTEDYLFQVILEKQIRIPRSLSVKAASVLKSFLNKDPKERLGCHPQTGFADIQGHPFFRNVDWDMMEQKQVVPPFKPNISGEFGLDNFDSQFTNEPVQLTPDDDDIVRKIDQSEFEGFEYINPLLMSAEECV

B1: human Par3 conserved region 3 peptide, residues 816-834 (Par3CR3) (peptide, UniProt Q8TEW0 816-834, looked up)
peptide: LAFQREGFGRQSMSEKRTK
modifications: also: fluorescein label (position not given here)
notes: also called wild-type Par3CR3; source: synthetic peptide

Columns and labels:
[1] = target: T1, PKCιKD-2P (primed human PKC-iota kinase domain); test: In vitro kinase assay (ADP Quest), inhibition of phosphorylation of a model substrate peptide; type: biochemical; settings: Figures 1C, S5C
Method: The ADP Quest kit (DiscoveRx) was used to determine the kcat app and KM app values for ATP against the PKCιKD-1P and PKCιKD-2P using a series of synthetic peptide substrates as described by [Kjaer et al. (2013)]. The reactions were measured every 2 min for 30 min in a 384-well plate using a Safire^2 plate reader (Tecan). The kinetic constants were determined by fitting the data to the Michaelis-Menten equation. Data are represented as mean ± SEM. Fluorescence anisotropy assays were performed to determine the KD for each peptide labeled with a fluorescein tag following standard protocols using a Safire^2 plate reader (Tecan). The anisotropy values were normalized and the KD was determined using non-linear regression. […]
(§1) The ADP Quest kit (DiscoveRx) was used to determine the kcat app and Km app values for ATP against the PKCι KD-1P and PKCι KD-2P. The assay uses a coupled reaction to convert ADP to a product that has a fluorescence excitation at 530 nm and emission at 590 nm. […]
peptide ([…]) related to the Nishikawa and co-workers consensus were also used in the study (Nishikawa et al., 1997). […] The reactions were measured every two minutes for 30 minutes in a 384-well plate using a Safire 2 plate reader (Tecan). The kinetic constants were determined by fitting the data to Michaelis–Menten equation using the graphics program Prism (GraphPad Prism, version 5.0d, GraphPad Software). […]

[2] = target: T1, PKCιKD-2P (primed human PKC-iota kinase domain); test: In vitro kinase assay (ADP Quest), peptide as substrate, Michaelis-Menten kinetics; type: biochemical; settings: in vitro kinase assay
Method: The ADP Quest kit (DiscoveRx) was used to determine the kcat app and KM app values for ATP against the PKCιKD-1P and PKCιKD-2P using a series of synthetic peptide substrates as described by [Kjaer et al. (2013)]. The reactions were measured every 2 min for 30 min in a 384-well plate using a Safire^2 plate reader (Tecan). The kinetic constants were determined by fitting the data to the Michaelis-Menten equation. Data are represented as mean ± SEM. Fluorescence anisotropy assays were performed to determine the KD for each peptide labeled with a fluorescein tag following standard protocols using a Safire^2 plate reader (Tecan). The anisotropy values were normalized and the KD was determined using non-linear regression. All experiments were performed in triplicate and for at least three independent protein preparations.
as §1, with “nm. Several synthetic peptide substrates were used including a model peptide” for “nm.”
([…]) derived from a PKCε pseudo-substrate sequence with an alanine-serine change. We found this peptide to be an efficient substrate peptide for aPKC isozymes. Peptides from human Par3CR3 (residues 816-835) and F-X-R short […]
peptide ([…]) related to the Nishikawa and co-workers consensus were also used in the study (Nishikawa et al., 1997). For the kcat app and Km app reactions, the ATP concentration ranged from 0-200 µM, while the synthetic peptide substrates were kept constant at 200 µM to avoid product inhibition. The reactions were measured every two minutes for 30 minutes in a 384-well plate using a Safire 2 plate reader (Tecan). The kinetic constants were determined by fitting the data to Michaelis–Menten equation using the graphics program Prism (GraphPad Prism, version 5.0d, GraphPad Software). […]

[3] = target: PKCι kinase domain, 248-596 (UniProt P41743); test: fluorescence anisotropy, fluorescein-labelled peptide; settings: reference: unphosphorylated Par3CR3 peptide; sites S827
Par6-PKCι-Cdc42 complex = test: In vitro activity of activated Par complex (data not shown); type: biochemical
[4] = target: T2, human PKC-iota kinase domain, partially …; test: FP
[5] = target: T3, human PKC-iota kinase domain, primed …; test: FP
[6] = target: T3, human PKC-iota kinase domain, primed …; test: FP
[7] = target: T4, human PKC-iota kinase domain, primed …; test: cell-based or functional assay
[8] = target: T4, human PKC-iota kinase domain, primed …; test: fluorescence polarisation; fluorescence anisotropy of fluorescein-labelled peptide with PKCι kinase domain; Safire2 plate reader; anisotropy normalised, KD by non-linear regression; triplicate, at least three independent protein preparations; settings: both partners purified

| Molecule | inhibition of PKCι catalytic activity in vitro (in words) [1] | Kd [6] [nM] | Kd [8] [nM] | other results |
| --- | --- | --- | --- | --- |
| Kibra-derived peptide: Kibra-derived peptide (residues 919–978) with F-X-R motif anchor and K-R inhibitory motif (LRGSTIIRSKTFSPGPQSQYVCRLNRSDSDSSTLSKKPPFVRNSLERRSVRMKRPSSVKS) | potently inhibit | – | – | – |
| FKRQGSVRRR [F-X-Rshort peptide, artificial PKCι substrate resembling the aPKC consensus motif of Nishikawa et al] | does not inhibit | – | – | phosphorylation as substrate by PKCι in vitro (in words) [2]: efficient PKCι substrate |
| Par3 CR3, 816-834 (from UniProt Q8TEW0) phospho-S827 Par3CR3 peptide | – | – | – | fold change [3]: weaker |
| CSCC[C@H](NC(=O)[C@H](CO)NC(=O)[C@H](CCC(N)=O)NC(=O)[C@H](CCCNC(=N)N)NC(=O)CNC(=O)[C@H](Cc1ccccc1)NC(=O)CNC(=O)[C@H](CCC(=O)O)NC(=O)[C@H](CCCNC(=N)N)NC(=O)[C@H](CCC(N)=O)NC(=O)[C@H](Cc1ccccc1)NC(=O)[C@H](C)NC(=O)[C@@H](N)CC(C)C)C(=O)N[C@@H](CO)C(=O)N[C@@H](CCC(=O)O)C(=O)N[C@@H](CCCCN)C(=O)N[C@@H](CCCNC(=N)N)C(=O)N[C@H](C(=O)N[C@@H](CCCCN)C(=O)O)[C@@H](C)O [Par3CR3] (H-LAFQREGFGRQSMSEKRTK-OH; N-terminus and C-terminus assumed) | – | – | – | inhibition of activated Par complex (in words) (Par6-PKCι-Cdc42 complex): potently inhibited |
| B1 | – | 730 | 470 | Kd [4]: 53600 nM; Kd [5]: 410 nM; apparent IC50 of the block of phosphorylation of a model substrate peptide by PKCιKD-2P, in vitro kinase assay [7]: 450 nM |
| LAFQREGFGRQAMSEKRTK (peptide, UniProt Q8TEW0 816-834, looked up, also: fluorescein label (position not given here), source: synthetic peptide) [Par3CR3 S827A mutant peptide] | – | 690 | 970 | – |
